Source: the supplement of paper PMC9170038

Tested on: MS2 coat protein
Assay: apparent KD of MS2 coat protein; higher = weaker reporter binding
Settings: Eterna round: R107
Summary of the method: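 Designed RNA switches, transcribed on-chip from Illumina sequencing clusters, were titrated with SNAP-549-labelled MS2 coat protein from 0.7 or 1.5 nM to 3 µM in twofold steps. The solution was 100 mM Tris-HCl pH 7.5, 80 mM KCl, 4 mM MgCl2, with constant ligand or without it. Apparent KD is the median over each design's normalised cluster binding-curve fits.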

[1] = input ligand: theophylline 20 uM
[2] = input ligand: tryptophan 2.4 mM
[3] = input ligand: theophylline 2 mM

Sequence	apparent KD of MS2 coat protein (input ligand: arginine 13.2 mM)	apparent KD of MS2 coat protein [1]	apparent KD of MS2 coat protein [2]	apparent KD of MS2 coat protein (input ligand: none)	apparent KD of MS2 coat protein [3]
GCACGACAUGAGGAUCACCCAUGUGCAGAUACCAGUAAUGUAUAUUACCCUUGGCAGCUGAGUAGAUCUGGAGGGCUAUAGGUAA [Same State Theophylline A GF10]	11.5 nM	18.7 nM	14.1 nM		
AUACAUGAGGAUCACCCAUGUAUAGAUGAAGGAGCGACCAGAGGGUCAGGUAGGUCGCAUCACAUGAGGAUCACCCAUGUAUCGA [DOUBLE!!! :-D #8]	33.6 nM	53 nM	47.1 nM	56.8 nM	67.2 nM
AAAACGCAACUCGAUACCAGUACACUGAGUCUUCGCCACGACAUGAGGAUCACCCAUGUGUACCCUUGGCAGCGACAGAGCCACA [theeternabot_exclusion_MS2_Theo_B_42]	43.4 nM	84.9 nM	57.7 nM		
ACAUGAGGAUCACCCAUGUCACGGCACGAUACCAGCUGAUCCGGUGGCCCUUGGCAGCGUCACGUUUGGUCCCGCGGAUGACACG [klmmullin]	29.4 nM	89.6 nM	65.5 nM		
CCGUCACAUGAGGAUCACCCAUGUGGUGAUACCAGCAGUCGACCCUGCCCUUGGCAGCACAUUAUCAUAAAAGCAAUCAGCAACG [theeternabot_sameState_MS2_Theo_A_41]	57 nM	269 nM	135 nM		
GCUAGGUCAUCGGCCGCCACUAACGAUGGCUCCGACAUGAGGAUCACCCAUGUGCCACAUGCGCAUAGGACCGGGAUGACCUAGC [SSTB NP+V+V2 #2]	16.8 nM	22.7 nM			19.8 nM
GGUGUAAUUGACUCUUUGUUUUAUUUGUAACGAGGACCGGUACGGCCGCCACUCGAUAUUCACAUGAGGAUCACCCAUGUUAGCU [JR_ExcTryptoA_Sub006]	19.1 nM	22.5 nM			24.3 nM
AUAGUUAUCAGAAGGAGCGUCAUUAACAUGAGGAUCACCCAUGUAACAUUGAAUUCGAUGAGACAGGUAGGUCGCUGAAUAUUAA [SS-ArgB28]	32.3 nM	48 nM	36 nM	39.6 nM	41.7 nM
ACUCUGUCGGGUGAUACCAGCCUCGGCACAUCUCGCGCCGAACAUGAGGAUCACCCAUGUGGCCCUUGGCAGCACAUGACAAAUC [Rimalearve]	64.1 nM	618 nM	512 nM		
CGGGUUCGGGCGGCCGCCACUAUGAUUAGGUGUGGGUGUGUUGUGUUACAUGAGGAUCACCCAUGUAGGACCGGGUUUGGGCUUG [Sturgeon]	33.4 nM	84.5 nM	57.4 nM	52.6 nM	28.3 nM
UUCAGCUAGUCGGCCGCCACUACAUGAGGAUCACCCAUGUUCCUAAAACACUGCUUCGGCAGUGGUAGGACCGGGACUAGCUGAG	41.1 nM	48.5 nM	256 nM	31.7 nM	42 nM
ACAUGAGGAUCACCCAUGUUCCUCAUUGAUACCAGUGAAAGAAGACGCCCUUGGCAGCGAGAAGAAGAAGAAGAAGUUUUUUUUU [6.B]	209 nM	770 nM	917 nM		
CCAAGCAUAAUAGAUACCAGUCGUAUACCUCCAACAUGAGGAUCACCCAUGUGCUCAGUUGACCCUUGGCAGCUAUGCCUAUAGA [theeternabot_sameState_MS2_Theo_B_1]	37.4 nM	53.3 nM	38.2 nM		
GUUACAUGGCAAGCAUGUAUAUGGAUAGAUACCAGUUGAUAUUAAGACCCUUGGCAGCUGAGUACAUGAGGAUCACCCAUGUAAG [Theo A Ex t3]	28.4 nM	46.9 nM	51.9 nM		
CUAAAUAUAACGGCCGCCACUUACUCAUGAGGUAACAACAUGAGGAUCACCCAUGUUUGAGGAUCAAGGACCGGGUUAUAUUUAG [AstrosSSTry#22]	26.5 nM	38.1 nM			30.2 nM
GGGACAUCGGGAAGGAGCGCAUCCAAACCACACAUGAGGAUCACCCAUGUAUAAAUAUGCAUGCAGGUAGGUCGCCCGGUGCCUC [Axeenza]	44.2 nM	131 nM	101 nM	114 nM	123 nM
AAUUCAGGGUCGGCCGCCACUGGUAUGGCGAGUCCUCGAACUUACAUGAGGAUCACCCAUGUGAACAGGACCGGGACAGCAUGGG [Exclusion Tryptophan B GF 22]	57.8 nM	256 nM	214 nM	233 nM	239 nM
CUAUAUAGAAAACUAUAUAGAGUGGGUGAACGAGGACCGGUACGGCCGCCACUCGGACAUGAGGAUCACCCAUGUCCAUGUGAAA [AstrosExyTryA#25]	13.1 nM	13 nM	29.4 nM	14.8 nM	25 nM
ACUUUGUCGGGUGAUACCAGCCUCGGCACAUCUCGUGCCGAACAUGAGGAUCACCCAUGUGGCCCUUGGCAGCACAUGACAACUC [Quceanteri]	145 nM	637 nM	608 nM		

Sequence	apparent KD of MS2 coat protein (input ligand: arginine 13.2 mM)	apparent KD of MS2 coat protein [1]	apparent KD of MS2 coat protein [2]	apparent KD of MS2 coat protein (input ligand: none)	apparent KD of MS2 coat protein [3]
GGAGGUACCCGAAGGAGCGACAUGAGGAUCACCCAUGUCUCCCGUUAUGGGAGUUCUUUAGGUCAGGUAGGUCGCGGGUACCUCC [#1 Exclusion - Arginine B Attempt #2 (Inspired by Omei)]	79.3 nM	114 nM	97 nM	97.7 nM	202 nM
AAUCUGUCGGGUGAUACCAGCCUCGGCGCAUCUCGCACCGAACAUGAGGAUCACCCAUGUGGCCCUUGGCAGCACAUGACAAAUC [Ermateus]	113 nM	767 nM	654 nM		
AGAUCGCUGACCGCGGGAGAUGCGCAGGAUACCAGCCUAAUGUCCGGCCCUUGGCAGCCUGUAACAUGAGGAUCACCCAUGUGAA [theeternabot_exclusion_MS2_Theo_A_29]	15 nM	20.9 nM	18.1 nM		
GGCACAUAGUCGGCCGCCACUAGUGGGAAAUGGGAGAACAUGAGGAUCACCCAUGUUGCGUAGCCUAGGACCGGGACUAUGUGCC [Hippopotamus]	29.1 nM	37.6 nM	35 nM	30.1 nM	33.2 nM
GGAUAUAGGGAACCGUAUCCGAAACCUGAAGGAGCGGCCGAAAGGCCAGGUAGGUCGCGGGAACAUGAGGAUCACCCAUGUAUUC [dancer]	31.1 nM	71.8 nM	55.4 nM	57.3 nM	59.2 nM
AGCCUCAUACAUGAGGAUCACCCAUGUGAUACCAGUCAGGAAACUGACCCUUGGCAGCGCAUGAGGAUCACCCAUGCGCGAGGCA [Omei Theo A Exc A v1]	40.1 nM	123 nM	36.8 nM		
UUUUAGCAUCGAAGGAGCGCUGGUAGGUGACACAUGAGGAUCACCCAUGUGCUCCUUACCGAGCAGGUAGGUCGCGAUGCUAUUU [SSAB NP+V+V2 #9]	20 nM	35.4 nM	25.1 nM	23.7 nM	29.4 nM
GUCGCUGAGAGAAGGAGCGUGAAGACAUGAGGAUCACCCAUGUAGAGGCGCCGAAGGCGUUCGCAGGUAGGUCGCUCUCAGUGAC [#1 Same State - Arginine B Attempt #21 (HarryS)]	10.2 nM	19.2 nM	17.3 nM	15.4 nM	21.8 nM
UUUUACGGCGAUCUGGGUUUACCAGAUCGGCGAGGACCGGUACGGCCGCCACUCGUGUUUCUUUGACAUGAGGAUCACCCAUGUA [whbob_SS_trypto A_f1]	28.9 nM	42.5 nM			39.2 nM
GCUGCAGCUACGGCCGCCACUGUUACGUGAGACAUGAGGAUCACCCAUGUUGAUGUUUUACAGAAUAGGACCGGGUAGUUGUAGU [E 1.1]	8.84 nM	11.3 nM			9.87 nM
UCCGGACGUUCGGCCGCCACUAAUUUACAUGAGGAUCACCCAUGUGCCAGUGGUCCGCAGAGUAAUAGGACCGGGAACCUUGGCU [theeternabot_exclusion_MS2_Trp_B_10]	24.4 nM	30.8 nM			26.3 nM
AGAUGUAGCGGAAGGAGCGACAUGAGGAUCACCCAUGUCUCCCGUUGUGGGAGUUCCUUAGGUCAGGUAGGUCGCCGUUACGUCA [Omei Arg B SS B v2]	121 nM	153 nM	132 nM	230 nM	259 nM
GAAUUUAUUUGAAGGAGCGUCGAAAAUGGGUAAACAUGAGGAUCACCCAUGUAAAGGGAACGACAGGUAGGUCGCAAAUGGAUUC [AstromonsSSArgB#27]	126 nM	259 nM	188 nM	206 nM	224 nM
AGCCAUGGAAACAUGGCGGCGGCAUGAGCGCGAGGACCGGUACGGCCGCCACUCGGGCGACAUGAGGAUCACCCAUGUUCCUCAA [ETA NP+V+V2 #21]	27.2 nM	54.1 nM	340 nM	27.5 nM	38.2 nM
AAUUAGAUGUCGGCCGCCACUGAUGUGUCUGUUGCGUCCAGUGUGUACAUGAGGAUCACCCAUGUCAGGACCGGGACUUUAAAUU [Sodigeedar]	12.4 nM	13.5 nM			12.3 nM
GGGCCUGUAGGCAGGCCCACAGCGGGUGAUACCAGCAAUAAAACUUGCCCUUGGCAGCACACAGCUACAUGAGGAUCACCCAUGU [Ismaorxe]	44.9 nM	99.3 nM	69.7 nM		
GAGCUGAUGUAGGGCGGAUAUCCGUGAGAUACCAGUACAGAAAUGUACCCUUGGCAGCUCUUCCUUACAUGAGGAUCACCCAUGU [Ex Theophylline A 26]	23.1 nM	25.5 nM	19.4 nM		
GGCGGACUUAUAGAUACCAGCACAUGAGGAUCACCCAUGUAUGGUCGCACCUCAGUCCUGUGCCCUUGGCAGCUAUAAUAGAUUU [Esxeanbi]	20.8 nM	49.8 nM	16.4 nM		
ACAUGAGGAUCACCCAUGUGCAUCACCCGACGAGGACCGGUACGGCCGCCACUCGGGUAUAUAUUUACAUCGGGUGAUUUUACGU [#24 Tryptophan A Same State]	29.1 nM	55.9 nM			51.8 nM
